Reference: patent US20240076392A1 (IGM BIOSCIENCES, published 2024)

B1: h32716-4-2 IgM (CD123xCD3 IgM antibody) (bispecific antibody)
VH: QVQLVQSGPELKKPGASVKVSCKASGYIFTNYGMNWVRQAPGQGLEWMGWINTYTGESTYSADFKGRFVFSLDTSVSTAYLQISSLKAEDTAVYYCARSGGYDPMDYWGQGTLVTVSS
VL: DIQMTQSPSSLSASVGDRVTITCRASESVDNYGNTFMHWYQQKPGKAPKLLIYRASNLESGVPSRFSGSGSGTDFTFTISSLQPEDIATYYCQQSNEDPPTFGQGTKVEIK
chain: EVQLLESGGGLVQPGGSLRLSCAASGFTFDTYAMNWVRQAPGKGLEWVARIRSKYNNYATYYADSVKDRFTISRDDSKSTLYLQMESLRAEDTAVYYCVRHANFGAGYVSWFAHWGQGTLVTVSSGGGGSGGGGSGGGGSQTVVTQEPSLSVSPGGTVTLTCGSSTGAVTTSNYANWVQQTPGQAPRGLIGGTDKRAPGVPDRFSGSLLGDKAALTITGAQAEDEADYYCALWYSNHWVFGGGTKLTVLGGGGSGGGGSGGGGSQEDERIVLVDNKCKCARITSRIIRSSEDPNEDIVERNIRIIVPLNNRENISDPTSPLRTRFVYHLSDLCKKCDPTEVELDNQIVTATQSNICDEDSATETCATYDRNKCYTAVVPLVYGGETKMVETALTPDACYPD
notes: Pentameric IgM with modified J-chain
B2: h32716-5-2 IgG (antibody, V domains shown)
VH: QVQLVQSGPELKKPGASVKVSCKASGYIFTNYGMNWVKQAPGQGLEWMGWINTYTGESTYSADFKGRFVFSLDTSVSTAYLQISSLKAEDTAVYYCARSGGYDPMDYWGQGTLVTVSS
VL: DIQMTQSPSSLSASVGDRVTITCRASESVDNYGNTFMHWYQQKPGKAPKLLIYRASNLESGVPSRFSGSGSGTDFTFTISSLQPEDIATYYCQQSNEDPPTFGQGTKVEIK
notes: Human IgG format
B3: h32716-6-2 IgG (antibody, V domains shown)
VH: QVQLVQSGPELKKPGASVKVSCKASGYIFTNYGMNWVKQAPGQGFKWMGWINTYTGESTYSADFKGRFVFSLDTSVSTAYLQISSLKAEDTAVYYCARSGGYDPMDYWGQGTLVTVSS
VL: DIQMTQSPSSLSASVGDRVTITCRASESVDNYGNTFMHWYQQKPGKAPKLLIYRASNLESGVPSRFSGSGSGTDFTFTISSLQPEDIATYYCQQSNEDPPTFGQGTKVEIK
notes: Human IgG format
B4: h32716-4-2 IgG (antibody, V domains shown)
VH: QVQLVQSGPELKKPGASVKVSCKASGYIFTNYGMNWVRQAPGQGLEWMGWINTYTGESTYSADFKGRFVFSLDTSVSTAYLQISSLKAEDTAVYYCARSGGYDPMDYWGQGTLVTVSS
VL: DIQMTQSPSSLSASVGDRVTITCRASESVDNYGNTFMHWYQQKPGKAPKLLIYRASNLESGVPSRFSGSGSGTDFTFTISSLQPEDIATYYCQQSNEDPPTFGQGTKVEIK
notes: Human IgG format
B5: 32716 IgM (CD123xCD3 IgM antibody) (bispecific antibody)
VH: QIQLVQSGPELKKPGETVKISCKASGYIFTNYGMNWVKQAPGKSFKWMGWINTYTGESTYSADFKGRFAFSLETSASTAYLHINDLKNEDTATYFCARSGGYDPMDYWGQGTSVTVSS
VL: DIVLTQSPASLAVSLGQRATISCRASESVDNYGNTFMHWYQQKPGQPPKLLIYRASNLESGIPARFSGSGSRTDFTLTINPVEADDVATYYCQQSNEDPPTFGAGTKLELK
J-chain: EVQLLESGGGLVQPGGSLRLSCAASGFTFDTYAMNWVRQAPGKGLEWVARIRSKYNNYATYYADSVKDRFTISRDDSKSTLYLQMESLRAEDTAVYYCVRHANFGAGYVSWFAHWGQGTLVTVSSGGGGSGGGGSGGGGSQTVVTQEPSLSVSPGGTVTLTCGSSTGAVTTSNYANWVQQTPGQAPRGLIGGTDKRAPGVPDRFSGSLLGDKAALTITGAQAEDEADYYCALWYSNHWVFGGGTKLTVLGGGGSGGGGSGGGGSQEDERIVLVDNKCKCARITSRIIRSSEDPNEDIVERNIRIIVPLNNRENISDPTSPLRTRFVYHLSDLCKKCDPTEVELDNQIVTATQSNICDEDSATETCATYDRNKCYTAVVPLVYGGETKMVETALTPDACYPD
notes: Pentameric IgM with J-chain; also called original mouse antibody
B6: 32716 IgG (antibody, V domains shown)
VH: QIQLVQSGPELKKPGETVKISCKASGYIFTNYGMNWVKQAPGKSFKWMGWINTYTGESTYSADFKGRFAFSLETSASTAYLHINDLKNEDTATYFCARSGGYDPMDYWGQGTSVTVSS
VL: DIVLTQSPASLAVSLGQRATISCRASESVDNYGNTFMHWYQQKPGQPPKLLIYRASNLESGIPARFSGSGSRTDFTLTINPVEADDVATYYCQQSNEDPPTFGAGTKLELK
notes: Parental mouse variable domains cloned into human IgG format; detected with anti-human kappa; also called original mouse antibody
B7: h32716-1-1 IgM (CD123xCD3 IgM antibody) (bispecific antibody)
VH: QVQLVQSGAEVKKPGSSVKVSCKASGYIFTNYGMNWVRQAPGQGLEWMGWINTYTGESTYSADFKGRVTITADESTSTAYMELSSLRSEDTAVYYCARSGGYDPMDYWGQGTLVTVSS
VL: DIVMTQSPDSLAVSLGERATINCRASESVDNYGNTFMHWYQQKPGQPPKLLIYRASNLESGVPDRFSGSGSGTDFTLTISSLQAEDVAVYYCQQSNEDPPTFGQGTRLEIK
chain: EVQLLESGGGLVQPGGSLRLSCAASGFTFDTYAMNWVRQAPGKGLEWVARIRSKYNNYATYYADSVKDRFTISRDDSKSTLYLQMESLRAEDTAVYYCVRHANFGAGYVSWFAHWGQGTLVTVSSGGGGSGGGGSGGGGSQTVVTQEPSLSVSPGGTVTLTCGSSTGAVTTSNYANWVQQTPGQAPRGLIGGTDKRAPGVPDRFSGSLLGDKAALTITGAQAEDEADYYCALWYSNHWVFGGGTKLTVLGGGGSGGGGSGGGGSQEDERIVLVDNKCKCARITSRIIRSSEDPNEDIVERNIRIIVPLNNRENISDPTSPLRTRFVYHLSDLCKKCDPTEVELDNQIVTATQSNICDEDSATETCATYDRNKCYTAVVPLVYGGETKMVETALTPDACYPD
notes: as for B1
B8: h32716-2-1 IgG (antibody, V domains shown)
VH: QVQLVQSGAEVKKPGSSVKVSCKASGYIFTNYGMNWVKQAPGQGLEWMGWINTYTGESTYSADFKGRFTFTLDESTSTAYMELSSLRSEDTAVYYCARSGGYDPMDYWGQGTLVTVSS
VL: DIVMTQSPDSLAVSLGERATINCRASESVDNYGNTFMHWYQQKPGQPPKLLIYRASNLESGVPDRFSGSGSGTDFTLTISSLQAEDVAVYYCQQSNEDPPTFGQGTRLEIK
notes: Human IgG format
B9: h32716-3-1 IgG (antibody, V domains shown)
VH: QVQLVQSGAEVKKPGSSVKVSCKASGYIFTNYGMNWVKQAPGQGFKWMGWINTYTGESTYSADFKGRFTFTLDESTSTAYMELSSLRSEDTAVYYCARSGGYDPMDYWGQGTLVTVSS
VL: DIVMTQSPDSLAVSLGERATINCRASESVDNYGNTFMHWYQQKPGQPPKLLIYRASNLESGVPDRFSGSGSGTDFTLTISSLQAEDVAVYYCQQSNEDPPTFGQGTRLEIK
notes: Human IgG format
B10: h32716-1-1 IgG (antibody, V domains shown)
VH: QVQLVQSGAEVKKPGSSVKVSCKASGYIFTNYGMNWVRQAPGQGLEWMGWINTYTGESTYSADFKGRVTITADESTSTAYMELSSLRSEDTAVYYCARSGGYDPMDYWGQGTLVTVSS
VL: DIVMTQSPDSLAVSLGERATINCRASESVDNYGNTFMHWYQQKPGQPPKLLIYRASNLESGVPDRFSGSGSGTDFTLTISSLQAEDVAVYYCQQSNEDPPTFGQGTRLEIK
notes: Human IgG format

Columns and labels:
[1] = biological target: T1, recombinant human CD123 protein (CD123, Fc-Fusion (IgG1) Avi-Tag, Biotin-Labeled, BPS Bioscience Cat.100068-2) (human, UniProt P26951 19-305, limits assumed, biotin-labeled (Avi-Tag)); experiment: BLI (Octet), CD123-Fc on anti-human Fc sensors, IgM in solution
T1 construct: Bought protein; not shown: IgG1 Fc; Avi-Tag
T1 sequence (looked up): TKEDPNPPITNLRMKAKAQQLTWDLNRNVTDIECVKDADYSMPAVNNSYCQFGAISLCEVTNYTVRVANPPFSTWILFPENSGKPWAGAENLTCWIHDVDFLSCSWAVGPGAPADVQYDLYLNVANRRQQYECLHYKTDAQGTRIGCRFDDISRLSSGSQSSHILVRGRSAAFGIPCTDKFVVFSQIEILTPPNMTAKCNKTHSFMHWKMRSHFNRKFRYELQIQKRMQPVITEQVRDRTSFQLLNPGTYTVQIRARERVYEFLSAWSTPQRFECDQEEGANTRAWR

Human CD123 = biological target: T2, Human CD123; experiment: ELISA, plate coated with 0.2 ug/mL recombinant human CD123 (Sino Biological), detection with HRP anti-human kappa, chemiluminescence
T2 construct: It is a different reagent from m11 (Acro, His) and m13 (BPS, Fc); also called recombinant human CD123 protein (Sino Biological 10518-H08H-50); not shown: The tag of the vendor's product
T2 chain: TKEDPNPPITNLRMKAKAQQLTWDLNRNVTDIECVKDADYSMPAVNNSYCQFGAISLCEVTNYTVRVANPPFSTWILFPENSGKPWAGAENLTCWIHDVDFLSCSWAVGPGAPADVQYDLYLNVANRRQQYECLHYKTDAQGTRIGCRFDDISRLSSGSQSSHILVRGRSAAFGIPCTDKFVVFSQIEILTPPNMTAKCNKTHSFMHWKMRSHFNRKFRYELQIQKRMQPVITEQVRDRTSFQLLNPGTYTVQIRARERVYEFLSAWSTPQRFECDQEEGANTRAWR
Experimental: 96-well white polystyrene ELISA plates (Pierce 15042) were coated with 100 μL per well of 0.2 μg/mL recombinant human CD123 protein (Sino Biological 10518-H08H-50) or 0.5 μg/ml recombinant human CD3ε protein (Acro Biosystems, CDE-H5256-100) overnight at 4° C. Plates were then washed 5 times with 0.05% PBS-Tween and blocked with 2% BSA-PBS. After blocking, 100 μL of serial dilutions of CD123×CD3 IgM antibodies, standards, and controls were added to the wells and incubated at room temperature for 2 hours. The plates were then washed 10 times and incubated with HRP conjugated mouse anti-human kappa (Southern Biotech, 9230-05. 1:6000 diluted in 2% BSA-PBS) for 30 min. After 10 final washes using 0.05% PBS-Tween, the plates were read out using SuperSignal chemiluminescent substrate (ThermoFisher, 37070). Luminescent data were collected on an EnVision plate reader (Perkin-Elmer) and analyzed with GraphPad Prism using a 4-parameter logistic model.

[2] = biological target: T3, recombinant human CD123 protein (CD123)-His Acrobio #ILA-H52H6 (human, UniProt P26951 19-305); experiment: BLI (Octet), CD123-His on anti-penta-His sensors, IgG in solution, 1:1 global fit
T3 construct: Bought protein; also called hu IL-3R alpha (CD123)-His; not shown: His tag
T3 sequence (looked up): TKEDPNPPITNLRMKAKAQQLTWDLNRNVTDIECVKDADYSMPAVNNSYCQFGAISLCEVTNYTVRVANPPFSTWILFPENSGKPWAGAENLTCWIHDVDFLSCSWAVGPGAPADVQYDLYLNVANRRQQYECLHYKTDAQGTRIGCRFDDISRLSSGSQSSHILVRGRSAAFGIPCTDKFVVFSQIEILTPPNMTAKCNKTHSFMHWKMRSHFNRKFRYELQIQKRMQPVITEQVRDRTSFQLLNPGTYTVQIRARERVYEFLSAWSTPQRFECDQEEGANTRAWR
Experimental: PBST (1×PBS+1% BSA+0.05% Tween-20) buffer was used as Antibody/CD123 dilution and sensor hydration buffer. The experiment followed a five-step sequential assay at 24° C. First, biosensors were hydrated for 10 minutes. Samples and buffer were applied in 384-well plate. After initial baseline for 60 s, sensors were loaded with 7 nM hu IL-3R alpha (CD123)-His Acrobio #ILA-H52H6. The biosensors were dipped into PBST for 20 s to reach baseline, then incubated for 420 s with 2-fold serial diluted anti-CD123 antibodies starting at 10 nM for association, followed by 900 s in PBST for dissociation. Results were analyzed by ForteBio Data Analysis software 9.0 using 1:1 global fit model.

Binder | Kd [1] | koff [1] | kon [1] | EC50 (read off the curve) (Human CD123) | Kd [2] | koff [2] | kon [2]
B1 | 0.00443 nM | 1.69e-05 s⁻¹ | 3.82e+06 M⁻¹ s⁻¹ | ~0.08 nM | – | – | –
B2 | – | – | – | – | 0.71 nM | 0.00045 s⁻¹ | 700000 M⁻¹ s⁻¹
B3 | – | – | – | – | 0.33 nM | 0.0002 s⁻¹ | –
B4 | – | – | – | – | 0.6 nM | 0.00046 s⁻¹ | 770000 M⁻¹ s⁻¹
B5 | < 0.001 nM | < 1e-07 s⁻¹ | 4.1e+06 M⁻¹ s⁻¹ | ~0.03 nM | – | – | –
B6 | – | – | – | – | 0.44 nM | 0.0003 s⁻¹ | 710000 M⁻¹ s⁻¹
B7 | < 0.001 nM | < 1e-07 s⁻¹ | 3.9e+06 M⁻¹ s⁻¹ | 0.1 to 0.2 nM | – | – | –
B8 | – | – | – | – | 0.45 nM | 0.00049 s⁻¹ | 1.1e+06 M⁻¹ s⁻¹
B9 | – | – | – | – | 0.25 nM | 0.00031 s⁻¹ | 1.2e+06 M⁻¹ s⁻¹
B10 | – | – | – | – | 0.36 nM | 0.0004 s⁻¹ | 940000 M⁻¹ s⁻¹
